This test has as its target 20S proteasome core (human (endogenous in HEK293T)). The test is described as follows: negative-stain EM, single-particle analysis; SEC fraction 4 (1.5 to 2 MDa) of HEK293T lysate, Superdex 200 in PBS pH 7.2 at 4°C; 2% uranyl acetate; raw micrographs, reference-free 2D class averages, 3D classification (RELION) and ab initio reconstruction (cryoSPARC); proteins identified by mass spectrometry of the fraction.

Values joined by “and” are separate entries in the source; they are usually repeats but may differ in a detail not shown here. Equal entries are not always repeated.

The stoichiometry N is a count of units in the complex or per binding partner. For 19S regulatory particle (complex), the stoichiometry N is 1 and 2.
